# Where no end group is shown, it is not given here.
# B1: Phage-874 (peptide)
# peptide: YCDGHLSEYMAKCL
# notes: not shown: pIII coat protein of the bacteriophage to which the peptide is fused
# B2: Phage-908 (peptide)
# peptide: YCDGHSREYMSKCL
# notes: Peptide-87 library clone, tested as clonal phage supernatant with the peptide fused to the pIII filament of the bacteriophage
# B3: Phage-888 (peptide)
# peptide: YCAGHTQEYMYKCL
# modifications: cysteine pairing not given here; also: fused to phage pIII
# notes: not shown: pIII filament protein of the bacteriophage to which the peptide is fused
# B4: Phage-879 (peptide)
# peptide: YCEGHSVQYMQKCL
# notes: as for B3
# B5: Phage-875 (peptide)
# peptide: YCEGHSEMYMKKCL
# notes: as for B1
# B6: Phage-887 (peptide)
# peptide: YCDGHSLAYIAKCL
# modifications: cysteine pairing not given here; also: fused to phage pIII
# notes: as for B3
# B7: Phage-912 (peptide)
# peptide: YCDGHSADYMAKCL
# notes: as for B2
# B8: Phage-891 (peptide)
# peptide: YCDGHSWEYMEKCL
# modifications: cysteine pairing not given here; also: fused to phage pIII
# notes: as for B3
# B9: Phage-910 (peptide)
# peptide: YCEGHAQEYMNKCL
# notes: as for B2
# B10: Phage-883 (peptide)
# peptide: YCAGHSAEYMWKCL
# modifications: cysteine pairing not given here; also: fused to phage pIII
# notes: as for B3
# B11: Phage-882 (peptide)
# peptide: YCDGHLVEYRGKCL
# modifications: cysteine pairing not given here; also: fused to phage pIII
# notes: as for B3
# B12: Phage-907 (peptide)
# peptide: YCDGHAPQWMAKCL
# notes: as for B2
# B13: Phage-876 (peptide)
# peptide: YCDGHLQIYLWKCL
# notes: as for B1
# B14: Phage-881 (peptide)
# peptide: YCDGHSREYMVKCL
# modifications: cysteine pairing not given here; also: fused to phage pIII
# notes: as for B3
# B15: Phage-905 (peptide)
# peptide: YCDGHSWQYISKCL
# notes: as for B2
# B16: Phage-880 (peptide)
# peptide: YCAGHLPEYLDKCL
# modifications: cysteine pairing not given here; also: fused to phage pIII
# notes: as for B3
# B17: Phage-906 (peptide)
# peptide: YCEGHAPQYMNKCL
# notes: as for B2
# B18: Phage-911 (peptide)
# peptide: YCEGHAPQYMTKCL
# notes: as for B2
# B19: Phage-885 (peptide)
# peptide: YCAGHSMEYMAKCL
# modifications: cysteine pairing not given here; also: fused to phage pIII
# notes: as for B3
# B20: Phage-890 (peptide)
# peptide: YCEGHLPQYFMKCL
# modifications: cysteine pairing not given here; also: fused to phage pIII
# notes: as for B3
# B21: Phage-878 (peptide)
# peptide: YCDGHAAEYMDKCL
# notes: as for B1
# B22: Phage-889 (peptide)
# peptide: YCEGHAQEYMSKCL
# modifications: cysteine pairing not given here; also: fused to phage pIII
# notes: as for B3
# B23: Phage-884 (peptide)
# peptide: YCDGHLQIYMHKCL
# modifications: cysteine pairing not given here; also: fused to phage pIII
# notes: as for B3
# B24: Phage-913 (peptide)
# peptide: YCDGHIGLYLNKCL
# notes: as for B2
# B25: Phage-877 (peptide)
# peptide: YCQGHLPVYMEKCL
# notes: as for B1
# B26: Phage-886 (peptide)
# peptide: YCDGHLPEYFLKCL
# modifications: cysteine pairing not given here; also: fused to phage pIII
# notes: as for B3
# B27: Phage-909 (peptide)
# peptide: YCDGHAAEYMAKCV
# notes: as for B2
# Columns and labels:
# [1] = target: T1, Anti-CD28 Fab (SEQ ID NOs: 696, 697); test: phage binding ELISA on Fab coated plate; wells pre-incubated with CD28 antigen as competitor
# T1 construct: In the phage ELISA the Fab was biotinylated and captured on neutravidin coated plates
# T1 sequence (VH, as listed by the source, chain 1 of 2): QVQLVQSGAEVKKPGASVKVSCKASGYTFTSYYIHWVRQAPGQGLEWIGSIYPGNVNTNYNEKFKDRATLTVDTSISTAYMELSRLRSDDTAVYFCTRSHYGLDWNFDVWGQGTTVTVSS
# T1 sequence (VL, as listed by the source, chain 2 of 2): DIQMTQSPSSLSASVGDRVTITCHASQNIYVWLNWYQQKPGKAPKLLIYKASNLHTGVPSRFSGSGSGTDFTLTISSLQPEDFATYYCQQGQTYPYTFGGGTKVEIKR
# Procedure: (§1) After panning, phage infected bacteria were plated out and colonies picked into 96 well blocks. Clonal phage was then amplified and separated from bacterial cells via centrifugation.
# (§2) Clonal phage were harvested as crude supematants and screened via standard ELISAs. […] Prior to the addition of clonal phage, wells were incubated with blocking buffer and CD28 antigen or blocking buffer alone. Without washing or aspirating, clonal phage supematants were then added to the wells and incubated for a short time. Wells were then washed followed by detection of bound phage using a horse radish conjugated anti-M13 antibody. Clonal phage of interest were then sent for sequence analysis.
# [2] = target: T1, Anti-CD28 Fab (SEQ ID NOs: 696, 697); test: phage binding ELISA; biotinylated Fab on neutravidin plate, clonal phage supernatant, anti-M13 HRP detection;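 also: phage from clones picked after panning, added to wells pre-incubated with blocking buffer with or without CD28 antigen, then briefly incubated and washed before detection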
# Procedure: as §1, §2
# [3] = target: Anti-CD28 Fab (SEQ ID NOs: 696, 697); test: phage binding ELISA; biotinylated anti-CD28 Fab on neutravidin plate, clonal phage supernatant, anti-M13 HRP detection
# Target sequence in this assay (VH, as listed by the source, chain 1 of 2): as the sequence (VH, as listed by the source, chain 1 of 2) above
# Target sequence in this assay (VL, as listed by the source, chain 2 of 2): as the sequence (VL, as listed by the source, chain 2 of 2) above
# [4] = target: Anti-CD28 Fab (SEQ ID NOs: 696, 697); test: phage binding ELISA on captured anti-CD28 Fab; competitor: CD28 antigen preincubated in the wells
# Target sequence in this assay (VH, as listed by the source, chain 1 of 2): as the sequence (VH, as listed by the source, chain 1 of 2) above
# Target sequence in this assay (VL, as listed by the source, chain 2 of 2): as the sequence (VL, as listed by the source, chain 2 of 2) above
# [5] = target: T2, Anti-CD28 Fab (SEQ ID NOs: 696, 697); test: phage ELISA on captured anti-CD28 Fab; competitor: CD28 antigen pre-incubated in the well
# T2 construct: In the phage ELISA the Fab was biotinylated and captured on neutravidin coated plates
# T2 sequence (VH, as listed by the source, chain 1 of 2): as the sequence (VH, as listed by the source, chain 1 of 2) above
# T2 sequence (VL, as listed by the source, chain 2 of 2): as the sequence (VL, as listed by the source, chain 2 of 2) above
# Procedure: as §1, §2
# [6] = target: T2, Anti-CD28 Fab (SEQ ID NOs: 696, 697); test: phage ELISA; biotinylated anti-CD28 Fab on neutravidin plate, bound phage detected with anti-M13-HRP
# Procedure: as §1, §2
# [7] = target: T3, Anti-CD28 Fab (SEQ ID NOs: 696, 697); test: phage ELISA; as above with CD28 antigen as competitor pre-incubated on the Fab coated wells
# T3 construct: Biotinylated and captured on neutravidin coated plates in the phage ELISA
# T3 sequence (VH, as listed by the source, chain 1 of 2): as the sequence (VH, as listed by the source, chain 1 of 2) above
# T3 sequence (VL, as listed by the source, chain 2 of 2): as the sequence (VL, as listed by the source, chain 2 of 2) above
# Procedure: as §1, §2
# [8] = target: T3, Anti-CD28 Fab (SEQ ID NOs: 696, 697); test: phage ELISA; biotinylated anti-CD28 Fab on neutravidin plates, clonal phage supernatant, anti-M13 HRP detection
# Procedure: as §1, §2
Binder,Anti-CD28 Fab signal in the presence of CD28 [5],Anti-CD28 Fab signal (phage binding ELISA) [6],"Phage binding ELISA, Anti-CD28 Fab signal in the presence of CD28 [7]","Phage binding ELISA, Anti-CD28 Fab signal [8]",other results
B1,,,,,"Anti-CD28 Fab signal in the presence of CD28 [1]: 0.08; Anti-CD28 Fab (SEQ ID NOs: 696, 697) signal [2]: 1.72"
B2,,,,,Anti-CD28 Fab signal (phage binding ELISA) [3]: 1.67; Anti-CD28 Fab signal in the presence of CD28 (phage binding ELISA) [4]: 0.1
B3,0.05,1.7,,,
B4,0.06,1.71,,,
B5,,,,,"Anti-CD28 Fab signal in the presence of CD28 [1]: 0.07; Anti-CD28 Fab (SEQ ID NOs: 696, 697) signal [2]: 1.72"
"YCDGHLPVYLEKCL (Tested as clonal phage supernatant) [Phage-894 (Peptide-87 library clone, YCDGHLPVYLEKCL)]",,,0.06,1.69,
B6,0.06,1.7,,,
B7,,,,,Anti-CD28 Fab signal (phage binding ELISA) [3]: 1.67; Anti-CD28 Fab signal in the presence of CD28 (phage binding ELISA) [4]: 0.07
B8,0.12,1.7,,,
B9,,,,,Anti-CD28 Fab signal (phage binding ELISA) [3]: 1.67; Anti-CD28 Fab signal in the presence of CD28 (phage binding ELISA) [4]: 0.06
B10,0.11,1.71,,,
B11,0.07,1.71,,,
B12,,,,,Anti-CD28 Fab signal (phage binding ELISA) [3]: 1.67; Anti-CD28 Fab signal in the presence of CD28 (phage binding ELISA) [4]: 0.1
B13,,,,,"Anti-CD28 Fab signal in the presence of CD28 [1]: 0.07; Anti-CD28 Fab (SEQ ID NOs: 696, 697) signal [2]: 1.72"
"YCDGHSPAYIWKCL (Tested as clonal phage supernatant) [Phage-900 (Peptide-87 library clone, YCDGHSPAYIWKCL)]",,,0.08,1.68,
B14,0.06,1.71,,,
B15,,,,,Anti-CD28 Fab signal (phage binding ELISA) [3]: 1.67; Anti-CD28 Fab signal in the presence of CD28 (phage binding ELISA) [4]: 0.05
B16,0.07,1.71,,,
"YCDGHSEQYMSKCL (Tested as clonal phage supernatant) [Phage-901 (Peptide-87 library clone, YCDGHSEQYMSKCL)]",,,0.07,1.68,
B17,,,,,Anti-CD28 Fab signal (phage binding ELISA) [3]: 1.67; Anti-CD28 Fab signal in the presence of CD28 (phage binding ELISA) [4]: 0.08

Binder,Anti-CD28 Fab signal in the presence of CD28 [5],Anti-CD28 Fab signal (phage binding ELISA) [6],"Phage binding ELISA, Anti-CD28 Fab signal in the presence of CD28 [7]","Phage binding ELISA, Anti-CD28 Fab signal [8]",other results
B18,,,,,Anti-CD28 Fab signal (phage binding ELISA) [3]: 1.67; Anti-CD28 Fab signal in the presence of CD28 (phage binding ELISA) [4]: 0.08
"YCDGHSSLYMHKCL (Tested as clonal phage supernatant) [Phage-904 (Peptide-87 library clone, YCDGHSSLYMHKCL)]",,,0.07,1.67,
"YCEGHKPEYMQKCL (Tested as clonal phage supernatant) [Phage-897 (Peptide-87 library clone, YCEGHKPEYMQKCL)]",,,0.06,1.69,
B19,0.07,1.71,,,
B20,0.07,1.7,,,
"YCDGHSTEYMEKCL (Tested as clonal phage supernatant) [Phage-903 (Peptide-87 library clone, YCDGHSTEYMEKCL)]",,,0.08,1.68,
"YCDGHAWEYMTKCL (Tested as clonal phage supernatant) [Phage-898 (Peptide-87 library clone, YCDGHAWEYMTKCL)]",,,0.35,1.69,
B21,,,,,"Anti-CD28 Fab signal in the presence of CD28 [1]: 0.07; Anti-CD28 Fab (SEQ ID NOs: 696, 697) signal [2]: 1.72"
"YCAGHSPLYMLKCL (Tested as clonal phage supernatant) [Phage-892 (Peptide-87 library clone, YCAGHSPLYMLKCL)]",,,0.1,1.7,
"YCEGHSAEYMQKCL (Tested as clonal phage supernatant) [Phage-893 (Peptide-87 library clone, YCEGHSAEYMQKCL)]",,,0.29,1.7,
B22,0.08,1.7,,,
B23,0.1,1.71,,,
"YCAGHLQEYMQKCL (Tested as clonal phage supernatant) [Phage-895 (Peptide-87 library clone, YCAGHLQEYMQKCL)]",,,0.07,1.69,
B24,,,,,Anti-CD28 Fab signal (phage binding ELISA) [3]: 1.66; Anti-CD28 Fab signal in the presence of CD28 (phage binding ELISA) [4]: 0.06
"YCEGHSPWYMNKCL (Tested as clonal phage supernatant) [Phage-899 (Peptide-87 library clone, YCEGHSPWYMNKCL)]",,,0.06,1.68,
B25,,,,,"Anti-CD28 Fab signal in the presence of CD28 [1]: 0.06; Anti-CD28 Fab (SEQ ID NOs: 696, 697) signal [2]: 1.72"
"YCDGHAKEYMDKCL (Tested as clonal phage supernatant) [Phage-902 (Peptide-87 library clone, YCDGHAKEYMDKCL)]",,,0.08,1.68,
B26,0.11,1.71,,,
B27,,,,,Anti-CD28 Fab signal (phage binding ELISA) [3]: 1.67; Anti-CD28 Fab signal in the presence of CD28 (phage binding ELISA) [4]: 0.07
"YCDGHAIEYMAKCL (Tested as clonal phage supernatant) [Phage-896 (Peptide-87 library clone, YCDGHAIEYMAKCL)]",,,0.08,1.69,

# — patent publication US20260242478A1 (published 2026)
